This note sets out measurements from patent US20040253250A1 (XCYTE THERAPIES, published 2004).

Bridge positions count the residues as written; N and C are the ends. Ends that are not written are not given here.

Test [1] deals with anti-CD3 mAb G19-4. Briefly: ELISA: immobilized G19-4 captures titrated CD3-Ig; detection with anti-human IgG hinge-CH2-CH3 HRP conjugate. On the technique in general: In an ELISA, binding on a coated surface is turned into a signal by an enzyme label.
For test [2], the target named is CD3εδ-Ig heterodimer (human) (UniProt P07766). Nature of the test: BIACORE (SPR); Affinity (nM). On the technique in general: Surface plasmon resonance follows binding to a sensor surface in real time, without labels.
CD3εδ-Ig heterodimer (human), sequence (P07766 23-126, stated change not applied, chain 1 of 2): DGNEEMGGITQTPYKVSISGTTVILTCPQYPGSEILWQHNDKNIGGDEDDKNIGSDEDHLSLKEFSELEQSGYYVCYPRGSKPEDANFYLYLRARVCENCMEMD
CD3εδ-Ig heterodimer (human), sequence (P04234 22-105, stated change not applied, chain 2 of 2, further chain): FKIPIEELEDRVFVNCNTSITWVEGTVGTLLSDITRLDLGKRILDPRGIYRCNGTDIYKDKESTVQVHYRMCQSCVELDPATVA
Test [3] has as its target CD3εγ-Ig heterodimer (human) (UniProt P07766). Briefly: ELISA, anti-CD3 mAb immobilized, fusion protein titrated.
The target in test [4] is CD3ε-Ig (human) (UniProt P07766). The description is as above.
CD3ε-Ig (human), sequence (P07766 23-126): as the sequence (P07766 23-126, stated change not applied, chain 1 of 2) above
Test [5] deals with CD3γ-Ig (human) (UniProt P09693). Described as above.
CD3γ-Ig (human), sequence (P09693 23-116): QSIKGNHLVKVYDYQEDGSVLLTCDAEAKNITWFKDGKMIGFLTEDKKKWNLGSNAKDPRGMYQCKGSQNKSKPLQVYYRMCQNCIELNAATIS
Test [6] addresses CD3εδ-Ig heterodimer (human) (UniProt P07766). Described as above.
Test [7] addresses T1, CD28huIg (UniProt P10747 19-152).
T1 construct: Immobilized on the BIACORE chip; construct not described; also called CD28Ig; CD28-Ig; not shown: human Ig part (huIg), not further described
Nature of the test: BIACORE (SPR), fusion protein immobilized, peptide in solution. How it is done: BIACORE uses surface plasmon resonance (SPR) which occurs when surface plasmon waves are excited at a metal/liquid interface. Light is directed at, and reflected due to bimolecular interactions between analyte (in solution) and ligand (immobilized). CD3εδhuIg, CD3εεhuIg and CD28huIg were covalently immobilized on a carboxymethy dextran chip using EDC/NHS chemistry followed by blocking with ethanol amine. Peptides were dissolved in HBS buffer at pH 7.2 with or without 1% DMSO, and were allowed to pass over these fusion protein-immobilized surfaces. Non-specific binding was substrated by passing these peptides over a controlled surface prepared by immobilizing EDC/NHS alone followed by ethanolamine.

Test [8] addresses CD3εδ-Ig heterodimer (human) (UniProt P07766). Briefly: BIACORE (SPR), fusion protein immobilized, peptide in solution; printed as Binding Affinity.

CD3εγ-Ig heterodimer (human), sequence (P07766 23-126, chain 1 of 2): as the sequence (P07766 23-126, stated change not applied, chain 1 of 2) above
CD3εγ-Ig heterodimer (human), sequence (P09693 23-116, chain 2 of 2, further chain): as the sequence (P09693 23-116) above

In the case of “CD3εγ-Ig heterodimer (from UniProt P07766 23-126; P09693 23-116) (Fc fusion)”, the EC50 (read off the curve) in test [1] was 0.8 µg/mL.

In test [1], “CD3εδ-Ig heterodimer (from UniProt P07766 23-126; P04234 22-105) (Fc fusion)” yielded an EC50 (read off the curve) of 0.1 µg/mL.

In test [2], anti-CD3 mAb 64.1 (antibody) yielded an equilibrium dissociation constant (Kd) of 7.58 nM. That is a single-digit nanomolar value.

In test [2], anti-CD3 mAb BC3 (antibody) gave a Kd of 5.7 nM.

Take anti-CD3 mAb G19-4 (antibody): the saturating concentration of the fusion protein in test [3] is 20 µg/mL; in test [4], greater than 100 µg/mL; in test [5], greater than 100 µg/mL; in test [6] it was 4 µg/mL. The molecule further gave a Kd in test [2] of 1.28 nM.

Consider YCYDYDGCY (disulfide 2-8 (inferred)) [YCYDYDGCY (SEQ ID NO:75)], for which the binding result in test [7] is on record as “no binding”.

Turning to YCYDYDFCY (disulfide 2-8 (inferred)) [YCYDYDFCY (SEQ ID NO:77)], in test [7], the binding result is “no binding”.

In the case of YCYDYDYCY (disulfide 2-8 (inferred)) [YCYDYDYCY (SEQ ID NO:76)], in test [7], the binding result was “no binding”.

Consider YCYDYDGCY (disulfide 2-8 (inferred)) [… (SEQ ID NO:75)], for which the Kd in test [8] worked out at 10000 nM.

On to YCFDWKNCY (disulfide 2-8 (inferred)) [… (SEQ ID NO:80)], for which the Kd in test [8] is 500 nM.

For YCFDWKNCY (disulfide 2-8 (inferred)) [YCFDWKNCY (SEQ ID NO:80)], the binding result in test [7] is recorded as “no binding”.

For YCYDDHTCY (disulfide 2-8 (inferred)) [YCYDDHTCY (SEQ ID NO:78)], the binding result in test [7] is given as “no binding”.

For YCYDDHQCY (disulfide 2-8 (inferred)) [YCYDDHQCY (SEQ ID NO:79)], in test [7], the binding result is “no binding”.

In general, EC50 (read off the curve) refers to the concentration that produces a half-maximal response. Read a low EC50 (read off the curve) as greater potency. A word on the Kd: it is the concentration at which binding is half-saturated. Higher therefore signals a looser complex.
